This passage reports percent hydrolysis, HPLC (% hydrolysis within 30 minutes) and increase of fluorescence emission upon cleavage (FRET assay) (fold increase in fluorescence) results from patent publication US20130143251A1.

The target of assay [1] is ubiquitinated peptide 20 (full Ub linked through a native isopeptide bond to the H2B 8-mer AVTKYTSK) (human).
In assay [2] the target is ubiquitinated peptide 24 (full Ub linked through a native isopeptide bond to a 31-mer from the C-terminus of H2B) (human).
The target of assay [3] is doubly labelled ubiquitinated peptide 32: Dnp-labelled Ub linked through a native isopeptide bond to MCA-(Nle)FKTEG (FRET substrate) (human).

As to “recombinant human UCH-L3 (ubiquitin C-terminal hydrolase) (from UniProt P15374) (enzyme)”, the figures for the percent hydrolysis, HPLC (% hydrolysis within 30 minutes) in assay [1] and in assay [2] were 75 and 25, respectively. This substance returned an increase of fluorescence emission upon cleavage (FRET assay) (fold increase in fluorescence) in assay [3] of 6.
